Here are results for 7 molecules from patent US6570069B1, “Nucleic acids encoding plant inhibitors of apoptosis and transgenic cells and plants expressing them” (priority 2000, dated 2003).

“Also recorded” adds a separate entry of the source.

B1: recombinant purified caspase-3 (enzyme, mammalian)
chain: SGISLDNSYKMDYPEMGLCIIINNKNFHKSTGMTSRSGTDVDAANLRETFRNLKYEVRNKNDLTREEIVELMRDVSKEDHSKRSSFVCVLLSHGEEGIIFGTNGPVDLKKITNFFRGDRCRSLTGKPKLFIIQACRGTELDCGIETDSGVDDDMACHKIPVEADFLYAYSTAPGYYSWRNSKDGSWFIQSLCAMLKQYADKLEFMHILTRVNRKVATEFESFSFDATFHAKKQIPCIVSMLTKELYFYHHHHHHH
notes: also called caspases-3
B5: GST-CpIAP (other)
chain: MSDLRLEEVRLNTFEKWPVSFLSPETMAKNGFYYLGRSDEVRCAFCKVEIMRWKEGEDPAADHKKWAPQCPFVKGIDVCGSIVTTNNIQNTTTHDTIIGPAHPKYAHEAARVKSFHNWPRCMKQRPEQMADAGFFYTGYGDNTKCFYCDGGLKDWEPEDVPWEQHVRWFDRCAYVQLVKGRDYVQKVITEACVLPGENTTVSTAAPVSEPIPETKIEKEPQVEDSKLCKICYVEECIVCFVPCGHVVACAKCALSVDKCPMCRKIVTSVLKVYFS
notes: range 1-275

Test [1] concerns SfIAP. Briefly: Grim peptide effect on SfIAP-mediated suppression of caspases in cyto c-stimulated cell extracts. In kind it is biochemical, Spodoptera frugiperda. Particulars: cyto c-stimulated cytosol extracts. How it is done:
(§1) Caspase activity was assayed by release of 7-amino-4-trifluoromethyl-coumarin (AFC) from Ac-DEVD or Ac-LEHD-containing synthetic peptides (Calbiochem) using continuous-reading instuments as described (Quan, L. T. et al., (1995) J. Biol. Chem. 270:10377-10379).
(§2) Cytosolic extracts were prepared as described (Deveraux, Q., Takahashi, R., Salvesen, G. S. & Reed, J. C. (1997) Nature 388, 300-303) using human embryonic kidney (HEK) 293 cells. Cells were washed with ice-cold buffer A (20 mM HEPES pH 7.5, 10 mM KCl, 1.5 mM MgCl2, 1 mM EDTA and 1 mM DTT), suspended in 1 volume of buffer A, incubated on ice for 20 mins, and then disrupted by 15 passages through a 26-gauge needle. Cell extracts were purified by centrifugation at 15000 g for 12 mins and supernatants were stored at −80 ° C. For initiating caspase activation, either 100 nM of purified recombinant caspase-8 or 1 μM horse heart cytochrome c (Sigma) together with 1 mM dATP was added to extracts (Deveraux, Q. L., et al., (1998) EMBO J. 17, 2215-2223).
It has been proposed that Drosophila apoptosis-inducers such as Grim function as negative regulators of IAPs (Deveraux, Q. & Reed, J. C. (1998) Genes Dev. 13, 239-252; Wang, S. et al. (1999) Cell 98, 453-463). […]

Test [2] addresses T1, CpIAP (Cydia pomonella granulosis virus, UniProt P41436).
T1 construct: The complete ORF of CpIAP was subcloned into the EcoRI-EcoRV sites of pcDNA3-myc or the EcoRI-SalI sites in pGEX4T-1; GST (N); made in house; host or cells: E. coli BL21 (DE3) containing pT-Trx
T1 sequence (P41436 1-275): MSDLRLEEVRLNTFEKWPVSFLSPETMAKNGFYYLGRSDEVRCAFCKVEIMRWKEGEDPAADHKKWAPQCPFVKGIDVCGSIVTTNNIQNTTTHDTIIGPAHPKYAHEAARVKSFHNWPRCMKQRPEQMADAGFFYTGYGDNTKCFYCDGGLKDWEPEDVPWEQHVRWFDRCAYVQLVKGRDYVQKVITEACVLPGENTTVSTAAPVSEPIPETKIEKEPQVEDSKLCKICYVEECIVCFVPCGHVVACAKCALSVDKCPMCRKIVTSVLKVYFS
Nature of the test: Grim peptide effect on CpIAP inhibition of mammalian caspases in vitro. The test is classed as biochemical, baculovirus.

Test [3] addresses GST-SfIAP (Spodoptera frugiperda). Nature of the test: cell-based or functional assay.
Test [4] has as its target B5. Nature of the test: in vitro binding with recombinant purified caspase; method not described.
Test [5] concerns the target recombinant active caspase-9 (caspase-9 lacking the CARD domain) (mammalian), P55211. Nature of the test: cell-based or functional assay.
Test [6] deals with B1. Briefly: in vitro binding with recombinant purified caspase; method not described.
Test [7] addresses T2, recombinant purified caspase-7 (mammalian, UniProt P55210 24-303).
T2 construct: also called caspases-7
T2 sequence: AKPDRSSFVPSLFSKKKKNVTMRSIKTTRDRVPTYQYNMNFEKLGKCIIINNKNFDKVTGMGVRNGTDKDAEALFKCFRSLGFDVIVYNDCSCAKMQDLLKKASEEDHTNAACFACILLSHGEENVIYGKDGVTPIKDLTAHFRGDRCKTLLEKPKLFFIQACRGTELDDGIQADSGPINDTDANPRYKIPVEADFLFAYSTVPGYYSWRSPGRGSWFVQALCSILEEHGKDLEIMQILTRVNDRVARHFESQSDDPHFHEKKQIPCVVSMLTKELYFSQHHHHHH
The test is described as above.

Test [8] concerns the target T3, [35S]pro-caspase-9 (mammalian, UniProt P55211 1-416, limits assumed).
T3 construct: also called in vitro-translated pro-caspase-9
T3 sequence (looked up): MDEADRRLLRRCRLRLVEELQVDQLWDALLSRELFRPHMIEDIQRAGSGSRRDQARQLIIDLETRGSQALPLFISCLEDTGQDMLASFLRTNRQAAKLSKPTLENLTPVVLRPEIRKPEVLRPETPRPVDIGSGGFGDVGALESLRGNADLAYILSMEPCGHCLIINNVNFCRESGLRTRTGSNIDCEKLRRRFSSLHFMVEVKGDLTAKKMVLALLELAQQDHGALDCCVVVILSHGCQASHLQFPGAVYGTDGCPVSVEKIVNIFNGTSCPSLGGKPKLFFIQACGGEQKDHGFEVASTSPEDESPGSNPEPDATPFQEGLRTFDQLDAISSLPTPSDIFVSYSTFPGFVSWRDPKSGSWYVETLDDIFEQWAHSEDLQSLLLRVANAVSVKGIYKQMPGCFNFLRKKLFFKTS
Nature of the test: GST pull-down of in vitro-translated [35S]pro-caspase-9 on glutathione-Sepharose, SDS-PAGE and autoradiography.

In test [9] the test system is caspase-3 and similar DEVD-cleaving proteases in cell extracts treated with cyto c. Nature of the test: Cell-free caspase activation induced by cyto c in HEK 293 cytosolic extracts. The test is classed as biochemical, human. Particulars: recombinant protein, cell extracts treated with cyto c. How it is done:
as §1, §2
To further explore the mechanisms by which SfIAP and CpIAP inhibit mammalian apoptosis, a cell-free system in which exogenously added active caspase-8 or cyto c induces activation of caspase-3 and similar proteases, as measured by hydrolysis of Ac-DEVD-AFC (Quan, L. T. et al., (1995) J. Biol. Chem. 270, 10377-10379) was used. Caspase-8 and cyto c trigger the same apoptosis pathways in extracts which are activated by Fas and Bax in intact cells.

Test [10] concerns the target T4, pro-caspase-9 (Homo sapiens, UniProt P55211).
T4 construct: host or cells: cell-free in vitro transcription/translation
T4 sequence (P55211 1-416): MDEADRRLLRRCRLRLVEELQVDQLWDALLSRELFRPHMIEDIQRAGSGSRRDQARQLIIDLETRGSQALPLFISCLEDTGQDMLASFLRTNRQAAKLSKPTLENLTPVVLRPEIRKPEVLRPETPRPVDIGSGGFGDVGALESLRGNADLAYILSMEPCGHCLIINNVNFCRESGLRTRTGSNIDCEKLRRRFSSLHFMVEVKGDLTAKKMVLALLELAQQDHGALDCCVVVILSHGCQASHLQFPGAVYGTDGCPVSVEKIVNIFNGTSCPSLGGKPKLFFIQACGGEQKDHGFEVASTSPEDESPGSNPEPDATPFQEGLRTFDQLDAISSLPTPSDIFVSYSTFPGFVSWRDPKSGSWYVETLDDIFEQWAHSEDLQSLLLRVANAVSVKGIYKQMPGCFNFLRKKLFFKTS
Briefly: GST pull-down binding of [35S]-pro-caspase-9. Also on record: species or system mammalian. Particulars: GST fusion protein on glutathione-Sepharose. On the procedure: [^35S]Pro-caspase-9 was in vitro transcribed and translated in the presence of [^35S]L-methionine using TNT kit from Promega. Protein were desalted and exchanged into buffer (20 mM HEPES pH 7.5, 10 mM KCl, 1.5 mM MgCl2, 1 mM EDTA and 1 mM DTT) with Bio-spin P-6 columns (Bio-Rad). […] After incubation at 4 ° C. for 1 hour, beads were removed by centrifugation and washed twice with 0.5 ml of 50 mM Tris (pH 7.5), 150 mM NaCl, 2 mm DTT before analysis by SDS-PAGE and autoradiography.

On to “Grim peptide: peptide corresponding to the IAP-binding domain of Grim (first 18 amino acid of Grim) (MAIAYFIPDQAQLLARSY; UniProt Q24570 1-18, looked up, fragment)”, for which, in test [1], the “effect on SfIAP inhibition of cyto c-induced activation of DEVD-cleaving caspases” value was “abrogated this inhibitory effect of SfIAP in a concentration-dependent manner; also recorded: negate the ability of SfIAP and CpIAP to inhibit mammalian caspases”; the “excess of peptide relative to SfIAP resulting in complete restoration of caspase activity” value is 5 fold. In addition, the “effect on ability of CpIAP to inhibit mammalian caspases” value in [2] is “negate the ability of SfIAP and CpIAP to inhibit mammalian caspases”. In turn, “Grim peptide (IAP-binding domain of Grim, first 18 amino acids) (from UniProt Q24570 1-18)” gave a restoration of DEVD-cleaving caspase activity in cyto c-stimulated cell extracts suppressed by SfIAP in [3] of 5 fold excess. For the molecule B1, in test [4], the binding result is reported as “no binding”.

B2: GST-SfIAP (other, not shown: a dimerising Fc or GST)
chain: MWSCSLPCWNTKKSGLQMDITKVASNGSSSTLTLFKSGSLEAKIRPLAPLMLPTPSYDSNAGSPSLSPSTPCSSSSFSIDKTDNHDTFGFSADTVDMRKEDERMKTFEKWPVSFLSGEQLARNGFYYLGRRDEARCAFCKVEIMRWVEGDDPAKDHQRWAPQCPFVRKLNGTAAADTGSSGQDECGARAAPSGTSPPRMAGPVHPRYASEAARLRSFKDWPRCMRQKPEELAEAGFFYTGQGDKTKCFYCDGGLKDWENHDVPWEQHARWFDRCAYVQLVKGREYVQKVISEACEVSASEAERDVAPARTAEPSPPAEAPENSVDDSKLCKICYAEERNVCFVPCGHVVACAKCALAADKCPMCRRTFQNAVRLYFS
notes: also called recombinant SfIAP; recombinant-purified SfIAP
Take B2: the molar-excess relative to caspase-9 which produced ~50% inhibition of protease activity (Ac-LEHD-AFC substrate) (fold molar excess) in [5] was found to be 8. Besides, the binding result in [6] and in test [7] was “no binding” in each case.

B3: GST-XIAP-BIR1 (other, human, UniProt P98170 1-123, looked up, not shown: a dimerising Fc or GST)
chain: MTFNSFEGSKTCVPADINKEEEFVEEFNRLKTFANFPSGSPVSASTLARAGFLYTGEGDTVRCFSCHAAVDRWQYGDSAVGRHRKVSPNCRFINGFYLENSATQSTNSGIQNGQYKVENYLGS
notes: domain: BIR1; also called BIR1 domain of XIAP
Take B3: the binding result in test [8] is listed as “no binding”.

B4: XIAP-BIR1: control protein consisting of the BIR1 domain of XIAP (protein)
chain: MTFNSFEGSKTCVPADINKEEEFVEEFNRLKTFANFPSGSPVSASTLARAGFLYTGEGDTVRCFSCHAAVDRWQYGDSAVGRHRKVSPNCRFINGFYLENSATQSTNSGIQNGQYKVENYLGS
modifications: left off: a dimerising Fc or GST
For B4, the “effect on hydrolysis of Ac-DEVD-AFC (caspase activity)” value in [9] is given as “did not interfere with caspase activity”. The “binding to pro-caspase-9 (autoradiography)” value in test [10] was “failed to bind caspase-9”.

B5: the binding result in [7] was “no binding”.
